Reference: PMC10579538 (The Journal of Biological Chemistry, 2023)
Blank lines part the entries; values can stand above or below the molecule they belong to.

Legend:
actin = actin (UniProt P68135)
[1] = target: myosin-7a subfragment-1 (motor domain and the first IQ motif) (human); experiment: mass photometry
[2] = target: full-length human myosin-7a heavy chain (isoform 1, long N-terminal isoform) (human, UniProt Q13402-1 1-2215); experiment: single-molecule two-color TIRF co-migration on actin
Chain of full-length human myosin-7a heavy chain (isoform 1, long N-terminal isoform) (Q13402 whole entry, canonical isoform): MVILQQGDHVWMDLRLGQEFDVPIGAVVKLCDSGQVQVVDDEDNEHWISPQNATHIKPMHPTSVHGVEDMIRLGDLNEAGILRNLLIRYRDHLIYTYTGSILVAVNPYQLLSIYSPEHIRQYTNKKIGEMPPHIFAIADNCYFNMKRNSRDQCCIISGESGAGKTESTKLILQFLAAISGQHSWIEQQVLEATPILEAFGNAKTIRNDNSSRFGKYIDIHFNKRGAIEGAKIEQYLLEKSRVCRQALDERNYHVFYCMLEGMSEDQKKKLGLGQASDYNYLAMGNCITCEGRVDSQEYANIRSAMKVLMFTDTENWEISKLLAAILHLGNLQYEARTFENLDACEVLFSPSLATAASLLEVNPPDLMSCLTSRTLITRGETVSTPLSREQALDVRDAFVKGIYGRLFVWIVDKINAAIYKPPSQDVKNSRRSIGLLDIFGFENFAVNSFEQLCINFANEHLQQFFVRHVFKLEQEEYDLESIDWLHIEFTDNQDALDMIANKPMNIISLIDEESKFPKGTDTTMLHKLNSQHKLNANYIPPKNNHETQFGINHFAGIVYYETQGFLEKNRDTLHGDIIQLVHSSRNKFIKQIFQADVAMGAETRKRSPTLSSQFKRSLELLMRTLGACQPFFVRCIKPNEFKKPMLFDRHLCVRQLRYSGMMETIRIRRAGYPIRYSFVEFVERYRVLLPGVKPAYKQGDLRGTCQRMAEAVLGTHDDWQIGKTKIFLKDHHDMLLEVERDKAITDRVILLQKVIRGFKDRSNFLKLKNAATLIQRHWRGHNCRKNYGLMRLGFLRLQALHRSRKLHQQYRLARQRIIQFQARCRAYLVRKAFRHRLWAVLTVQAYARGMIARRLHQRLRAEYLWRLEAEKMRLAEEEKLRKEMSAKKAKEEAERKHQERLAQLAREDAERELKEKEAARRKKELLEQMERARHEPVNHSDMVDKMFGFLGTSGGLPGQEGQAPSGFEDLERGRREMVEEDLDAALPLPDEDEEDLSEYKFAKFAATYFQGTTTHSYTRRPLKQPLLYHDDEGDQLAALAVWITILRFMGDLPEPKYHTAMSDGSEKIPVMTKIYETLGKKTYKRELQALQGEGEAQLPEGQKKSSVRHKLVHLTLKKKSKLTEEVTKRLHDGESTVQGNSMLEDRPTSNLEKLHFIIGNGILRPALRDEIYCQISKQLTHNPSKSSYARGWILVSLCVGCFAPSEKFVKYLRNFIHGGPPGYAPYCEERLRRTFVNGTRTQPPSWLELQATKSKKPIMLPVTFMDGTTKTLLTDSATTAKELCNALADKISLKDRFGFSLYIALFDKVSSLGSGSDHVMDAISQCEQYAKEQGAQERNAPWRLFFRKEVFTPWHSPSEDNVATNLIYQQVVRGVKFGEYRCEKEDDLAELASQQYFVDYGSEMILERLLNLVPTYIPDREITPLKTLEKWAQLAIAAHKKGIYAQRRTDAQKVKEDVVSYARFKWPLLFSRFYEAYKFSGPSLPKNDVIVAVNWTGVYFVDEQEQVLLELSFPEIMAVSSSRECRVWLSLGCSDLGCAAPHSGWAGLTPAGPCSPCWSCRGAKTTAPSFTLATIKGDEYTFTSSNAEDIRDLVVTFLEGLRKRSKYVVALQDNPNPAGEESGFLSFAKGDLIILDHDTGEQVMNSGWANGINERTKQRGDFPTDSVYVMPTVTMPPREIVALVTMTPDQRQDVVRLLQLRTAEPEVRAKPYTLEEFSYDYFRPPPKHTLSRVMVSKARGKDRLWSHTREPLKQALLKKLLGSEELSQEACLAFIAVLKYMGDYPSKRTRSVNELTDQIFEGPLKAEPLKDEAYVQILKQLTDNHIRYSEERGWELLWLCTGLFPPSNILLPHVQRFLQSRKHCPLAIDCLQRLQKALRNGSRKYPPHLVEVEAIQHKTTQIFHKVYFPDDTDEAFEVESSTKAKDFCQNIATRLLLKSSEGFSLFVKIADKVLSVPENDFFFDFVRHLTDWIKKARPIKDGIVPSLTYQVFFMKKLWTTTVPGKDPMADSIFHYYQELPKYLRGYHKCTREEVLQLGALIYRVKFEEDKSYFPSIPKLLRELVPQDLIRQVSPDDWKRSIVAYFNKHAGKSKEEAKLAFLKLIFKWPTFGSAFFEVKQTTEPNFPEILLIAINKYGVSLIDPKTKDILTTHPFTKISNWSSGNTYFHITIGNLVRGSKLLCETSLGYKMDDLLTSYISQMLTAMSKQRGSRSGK

K ATPase of the actin-activated steady-state ATPase (NADH-coupled assay) (actin): 11 µM
Molecule: myosin-7a subfragment-1 (motor domain and the first IQ motif) (domain or fragment)

stoichiometry N [1]: 1
Molecule: regulatory light chain (from UniProt O14950 1-172) (natural protein)

binding result [2]: binds
B1: mCherry-tagged MyRIP (myosin and Rab interacting protein) (natural protein, UniProt Q8NFW9-1 1-859, looked up)
chain: MGRKLDLSGLTDDETEHVLQVVQRDFNLRKKEEERLSELKQKLDEEGSKCSILSKHQQFVEHCCMRCCSPFTFLVNTKRQCGDCKFNVCKSCCSYQKHEKAWVCCVCQQARLLRAQSLEWFYNNVKSRFKRFGSAKVLKNLYRKHRLESGACFDILGGSLFESNLENEGSISGSDSTFYRQSEGHSVMDTLAVALRVAEEAIEEAISKAEAYGDSLDKQNEASYLRDHKEELTEELATTILQKIIRKQKSKSEQQVEEEPGWPHPQSCSTKVADEGTSASPGGYRAPAALWRSQSAFSITGEEALKTPPVEAPSRQPRDQGQHPRAESALPSWKSVDRLDETNLAPVLQSPDGNWVALKDGAPPPTRLLAKPKSGTFQALEVASSVASAYDEMGSDSEEDFDWSEALSKLCPRSRALPRNPQPQPTQAQSSDQGPIAASPSSALSPNPEAMCSDSETSSAGSSREVGHQARLSWLQRKAPRNPAAEKMRLHGELDVNFNPQLASRETSDSSEPEEAPHTTDRRARRWRRARLGSEEPSKEPSSPSAQLRDLDTHQVSDDLSETDISNEARDPQTLTDTTEEKRRNRLYELAMKMSEKETSSGEDQESEPKTESENQKESLSSEDNSQSVQEELKKKFSAVSLCNISTEVLKVINATEELIAGSTGPWESPQVPPDRQKGMFPRGTDQVRLDEQLTSLEENVYLAAGTVYGLETQLTELEDAARCIHSGTDETHLADLEDQVATAAAQVHHAELQISDIESRISALTIAGLNIAPCVRFTRRRDQKQRTQVQTIDTSRQQRRKLPAPPVKAEKIETSSVTTIKTFNHNFILQGSSTNRTKERKGTTKDLMEPALESAVMY
